The values that follow are results of earlier work, collected in patent US10603364B2, “Lysosomal targeting and uses thereof” (Shire Human Genetic Therapies, Inc., priority 2014, dated 2020).

The target of data set [1] is M6P/IGF II receptor (cation-independent mannose-6-phosphate receptor) (Homo sapiens, UniProt P11717).
The target of a further data set is IGF-I receptor (Homo sapiens, UniProt P08069).
Sequence of IGF-I receptor (P08069 31-736 limits assumed, species assumed): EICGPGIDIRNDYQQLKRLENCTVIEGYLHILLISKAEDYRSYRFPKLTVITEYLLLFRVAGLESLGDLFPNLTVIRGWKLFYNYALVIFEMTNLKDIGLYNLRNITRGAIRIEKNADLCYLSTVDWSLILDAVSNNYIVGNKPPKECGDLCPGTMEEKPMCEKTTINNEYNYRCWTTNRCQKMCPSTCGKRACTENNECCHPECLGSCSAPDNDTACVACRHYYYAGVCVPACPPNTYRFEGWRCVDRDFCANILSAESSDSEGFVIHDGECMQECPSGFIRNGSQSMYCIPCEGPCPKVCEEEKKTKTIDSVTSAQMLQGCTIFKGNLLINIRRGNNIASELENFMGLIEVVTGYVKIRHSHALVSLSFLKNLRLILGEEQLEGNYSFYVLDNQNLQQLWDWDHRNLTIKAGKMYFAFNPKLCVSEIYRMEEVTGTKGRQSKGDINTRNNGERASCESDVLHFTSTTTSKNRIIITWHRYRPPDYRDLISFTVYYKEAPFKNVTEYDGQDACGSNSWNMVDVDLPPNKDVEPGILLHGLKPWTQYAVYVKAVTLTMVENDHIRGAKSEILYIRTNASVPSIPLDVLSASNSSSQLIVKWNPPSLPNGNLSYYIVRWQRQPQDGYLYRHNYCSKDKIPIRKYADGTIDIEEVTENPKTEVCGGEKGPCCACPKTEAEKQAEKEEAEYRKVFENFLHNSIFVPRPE
Sequence of IGF-I receptor (P08069 741-1367 partner limits assumed, species assumed): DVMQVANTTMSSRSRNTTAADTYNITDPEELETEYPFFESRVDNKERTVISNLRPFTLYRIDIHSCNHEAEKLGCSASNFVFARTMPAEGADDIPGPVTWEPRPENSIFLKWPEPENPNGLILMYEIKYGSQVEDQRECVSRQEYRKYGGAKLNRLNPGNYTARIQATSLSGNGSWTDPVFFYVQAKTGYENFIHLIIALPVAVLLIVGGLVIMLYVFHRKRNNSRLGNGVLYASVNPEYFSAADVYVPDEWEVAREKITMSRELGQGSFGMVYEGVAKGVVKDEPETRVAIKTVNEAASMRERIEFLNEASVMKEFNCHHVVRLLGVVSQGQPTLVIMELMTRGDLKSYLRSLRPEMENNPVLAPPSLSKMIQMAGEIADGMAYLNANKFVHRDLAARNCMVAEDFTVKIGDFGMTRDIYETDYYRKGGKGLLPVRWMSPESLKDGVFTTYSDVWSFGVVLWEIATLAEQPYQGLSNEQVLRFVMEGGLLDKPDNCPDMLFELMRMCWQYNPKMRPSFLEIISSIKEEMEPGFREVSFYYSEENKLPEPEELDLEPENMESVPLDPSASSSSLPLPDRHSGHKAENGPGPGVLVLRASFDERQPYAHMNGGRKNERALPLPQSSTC

Sequence of M6P/IGF II receptor (cation-independent mannose-6-phosphate receptor) (P11717 41-2491): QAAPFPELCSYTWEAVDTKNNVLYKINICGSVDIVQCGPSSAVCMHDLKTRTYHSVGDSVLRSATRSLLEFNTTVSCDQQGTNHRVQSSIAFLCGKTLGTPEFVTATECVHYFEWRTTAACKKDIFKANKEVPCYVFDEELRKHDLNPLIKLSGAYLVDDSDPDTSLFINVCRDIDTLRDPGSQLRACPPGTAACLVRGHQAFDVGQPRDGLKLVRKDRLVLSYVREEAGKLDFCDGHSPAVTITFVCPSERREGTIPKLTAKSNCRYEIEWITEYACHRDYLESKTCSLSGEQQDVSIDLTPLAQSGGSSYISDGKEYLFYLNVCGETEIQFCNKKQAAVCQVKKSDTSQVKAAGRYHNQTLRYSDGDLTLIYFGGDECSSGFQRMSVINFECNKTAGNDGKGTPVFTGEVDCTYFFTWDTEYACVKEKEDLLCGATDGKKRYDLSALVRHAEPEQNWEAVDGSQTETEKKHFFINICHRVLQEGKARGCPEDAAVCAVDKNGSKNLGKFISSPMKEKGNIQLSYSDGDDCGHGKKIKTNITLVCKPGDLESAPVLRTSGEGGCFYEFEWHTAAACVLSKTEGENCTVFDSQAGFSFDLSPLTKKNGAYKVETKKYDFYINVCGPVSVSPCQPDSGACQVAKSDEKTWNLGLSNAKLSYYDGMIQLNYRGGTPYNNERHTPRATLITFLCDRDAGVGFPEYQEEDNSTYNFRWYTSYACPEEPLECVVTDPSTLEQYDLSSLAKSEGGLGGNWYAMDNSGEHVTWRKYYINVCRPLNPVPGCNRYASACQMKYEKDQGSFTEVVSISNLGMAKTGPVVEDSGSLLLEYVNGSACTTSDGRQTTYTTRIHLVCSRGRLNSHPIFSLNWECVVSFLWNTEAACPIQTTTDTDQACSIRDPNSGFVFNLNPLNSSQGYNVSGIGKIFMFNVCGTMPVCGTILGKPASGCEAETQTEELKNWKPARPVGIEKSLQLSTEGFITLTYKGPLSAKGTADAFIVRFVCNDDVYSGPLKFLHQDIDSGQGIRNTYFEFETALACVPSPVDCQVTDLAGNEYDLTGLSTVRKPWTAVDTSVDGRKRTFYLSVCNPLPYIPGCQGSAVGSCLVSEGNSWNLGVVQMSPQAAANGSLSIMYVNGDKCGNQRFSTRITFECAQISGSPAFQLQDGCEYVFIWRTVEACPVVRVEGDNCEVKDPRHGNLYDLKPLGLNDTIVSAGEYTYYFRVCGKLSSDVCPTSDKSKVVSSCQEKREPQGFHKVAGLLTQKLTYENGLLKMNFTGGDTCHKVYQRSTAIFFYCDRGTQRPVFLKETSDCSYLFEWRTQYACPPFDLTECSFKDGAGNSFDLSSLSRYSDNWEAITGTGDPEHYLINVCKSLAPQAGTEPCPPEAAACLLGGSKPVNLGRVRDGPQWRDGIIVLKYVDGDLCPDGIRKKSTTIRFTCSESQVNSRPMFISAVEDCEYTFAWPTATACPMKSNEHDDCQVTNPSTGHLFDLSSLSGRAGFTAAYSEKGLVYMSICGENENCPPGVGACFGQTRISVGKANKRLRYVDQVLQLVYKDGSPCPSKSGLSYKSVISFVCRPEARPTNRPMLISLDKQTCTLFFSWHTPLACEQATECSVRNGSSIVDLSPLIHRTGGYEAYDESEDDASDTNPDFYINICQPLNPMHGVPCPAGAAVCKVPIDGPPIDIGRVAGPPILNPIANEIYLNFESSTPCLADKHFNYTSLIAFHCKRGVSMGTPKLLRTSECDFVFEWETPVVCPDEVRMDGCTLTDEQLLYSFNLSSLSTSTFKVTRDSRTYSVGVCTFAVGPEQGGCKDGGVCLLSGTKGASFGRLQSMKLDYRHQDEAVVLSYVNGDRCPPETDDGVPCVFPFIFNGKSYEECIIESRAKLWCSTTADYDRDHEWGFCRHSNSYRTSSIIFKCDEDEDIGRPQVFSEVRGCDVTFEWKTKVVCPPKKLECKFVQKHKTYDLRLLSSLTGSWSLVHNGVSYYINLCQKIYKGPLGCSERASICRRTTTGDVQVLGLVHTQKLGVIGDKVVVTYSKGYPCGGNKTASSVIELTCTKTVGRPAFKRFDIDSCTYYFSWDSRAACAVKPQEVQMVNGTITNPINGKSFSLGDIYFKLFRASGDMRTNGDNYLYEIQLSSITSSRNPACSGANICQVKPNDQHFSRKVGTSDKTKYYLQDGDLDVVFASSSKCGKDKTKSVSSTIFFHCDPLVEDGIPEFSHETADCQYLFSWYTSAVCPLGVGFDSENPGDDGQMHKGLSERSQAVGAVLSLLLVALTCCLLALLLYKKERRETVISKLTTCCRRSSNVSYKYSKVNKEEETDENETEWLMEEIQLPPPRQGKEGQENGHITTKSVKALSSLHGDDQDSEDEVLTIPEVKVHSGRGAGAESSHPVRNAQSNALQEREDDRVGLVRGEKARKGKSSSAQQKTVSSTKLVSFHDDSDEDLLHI

Take “IGF-II sequence containing amino acid 8-67: amino acid residues 8-67 of the Insulin-like Growth Factor II peptide sequence, SEQ ID NO:21”: the “higher affinity for M6P/IGF II receptor compared to full-length IGF-II” value in data set [1] is on record as 2-10 fold. Besides, the “decrease in ability to bind IGF-I receptor compared to full-length IGF-II” value with IGF-I receptor is recorded as 30 fold.
